B1: CD69 (parent)
chain: FVAENSSLHPESGQENDATSPHFS
B2: STK38L (parent)
chain: NWKETLVFPPEVPISEKAKDLILR

Variants of: B1
Assay: protein stability index of a GFP-peptide fusion (GPS, HEK-293T) (PSI 1-6); higher = more stable
Conditions: c terminus: a fixed tail appended
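Also: lentivirally expressed fusions sorted by FACS into six bins by GFP to DsRed ratio, PSI derived from sequencing read proportions per bin multiplied by bin number.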

Protein stability index of substitutions, site by site:
A18: K 2.61
P10: C 2.84
S24: A 3.55
S6: T 3.34
E4: Y 2.39
E15: C 2.57
T19: N 2.9
P21: T 2.86
F23: P 3.37, V 3.59, S 4.12, E 4.17
D17: Y 2.18, E 2.82
Q14: T 2.99, A 3.06
E11: R 2.12
S20: Y 2.11, A 3.16
S7: M 2.22, Q 3.37
V2: Q 4.86, R 5.36
N16: E 3.05, C 2.73, V 3.13
H9: A 3.38, Q 3.5
F1: W 5.2
G13: A 2.69, E 3.41
A3: V 3.43
H22: V 3.54, R 3.18
S12: N 3.05, D 3.25, E 3.83

Variants of: B2
Assay: as above
Conditions: c terminus: a fixed tail appended

Protein stability index: each site, then its substitutions
A18: Y 2.45, S 3.32, E 4.56, W 2.65, K 3.4, R 3.69, Q 3.57, H 2.54, T 3.41, D 3.76, F 3.06, I 1.89, G 3.21, P 3.1, C 2.72, L 1.8, V 2.72, M 2.39, N 3.38
P10: A 2.65, C 2.81, V 3.02, Q 3.3, G 2.49, D 3.43, F 1.8, S 2.6, K 3.03, I 2.14, H 3.03, M 2.8, W 1.78, Y 2.48, T 3.35, L 2.81
V12: S 3.86, D 3.55, I 3.52, W 3.95, P 3.48, F 3.05, K 3.76, Y 2.62, C 2.73, M 3.15, N 3.26, L 2.67, T 2.97, Q 2.89, R 3.92, G 2.92, E 3.72, H 2.72
F8: T 3.58, N 3.1, V 3.75, H 3.33, K 4.21, S 3.73, Q 3.53, W 3.5, M 3.78, L 2.94, I 3.43, G 3.02, E 3.98
I14: H 2.84, Q 3.23, K 4.07, T 4.42, L 2.88, F 2.32, N 3.38, E 3.53, R 3.44, D 4.44, A 3.44, W 2.05, Y 2.1, C 3.19, M 3.77
E16: Q 2.43, T 2.6, F 2.04, V 3.14, G 2.31, C 2.7, N 3.3, H 2.34, A 2.66, M 1.66, S 2.33, Y 2.5, P 3.02, I 2.14, K 2.17, R 2.48, D 3.64
L21: P 3.69, V 3.53, Y 2.71, T 4.44, M 3.42, A 3.35, S 3.72, W 2.58, Q 3.41, E 4.66, N 3.56, H 3.48, R 3.62, I 3.27, D 3.72, G 3.81, C 3.62, F 2.63
P13: D 3.4, E 3.1, S 3.92, C 2.37, V 3.67, K 2.46, R 2.57, F 2.35, L 2.42, G 3.1, H 2.9, N 3.27, Y 1.97, T 2.44, M 2.36
K17: C 2.81, T 3.7, V 2.21, F 2.93, Y 3.14, N 3.37, H 2.98, A 3.17, Q 3.05, M 2.85, D 3.89, S 4.07, L 2.15, W 2.41, I 1.92, P 3.41, R 2.8, G 2.8, E 3.32
D20: M 1.94, S 2.45, H 1.9, R 2.94, N 2.63, C 2.06, V 2.23, F 2.52, A 2.92, I 1.52, Q 3, Y 1.8, P 2.65, G 2.31, T 2.92, W 1.92, K 2.57
K19: C 2.87, I 2.01, R 2.96, L 1.49, N 3.07, M 2.19, P 3.17, Q 2.86, H 2.78, W 2.26, A 2.69, F 1.95, T 3.41, G 2.96, D 3.38, E 3.77, Y 2.29, S 3.53
E11: S 2.3, R 2.87, I 2.52, V 3.03, A 2.87, G 2.65, T 2.68, Q 3.36, C 2.89, D 3.15, Y 2.21, W 2.63, L 3.58, M 2.39, N 2.69, H 2.81, F 1.92
P9: S 3.06, A 2.69, V 2.52, D 2.77, C 2.27, M 2.05, F 2.34, E 2.75, N 2.78, K 2.68, Q 4.18, R 2.93, H 2.57, W 1.56, L 2.32, T 2.9, I 2.75, G 1.93, Y 1.96
R24: F 2.13, D 4.32, I 1.88, G 3.9, C 2.16, T 3.59, Q 2.83, L 2.03, W 2.11, A 3.09, V 1.91, S 3.31, Y 1.63, M 2.64, P 3.43, N 3.96, H 3.16, E 3.57, K 3.6
I22: G 3.23, F 2.79, K 3.66, E 4.54, N 3.62, A 4.17, V 3.06, Y 3.51, S 3.89, D 4.43, L 3.21, C 3.07, M 4.15, H 3.68, R 4.04, P 4.36, Q 3.88, W 3.42, T 4.22
S15: F 2.44, Y 2.81, H 2.68, W 2, K 3.09, M 3.37, P 2.68, Q 3.87, D 4.1, G 2.92, I 1.89, L 1.84, E 4.21, V 2.31, T 3.27, A 2.84, N 2.62, C 3.67, R 2.79
L23: N 4.09, W 2.12, G 4.47, Q 4.22, E 4.15, M 2.6, I 3.24, C 3.36, R 4.19, A 3.75, T 3.77, V 3.27, F 2.9, D 4.92, Y 2.99, P 3.9, K 4.24, H 3.78, S 3.94

Source: the supplement of paper PMC10567573
